Data published in patent US20210283258A1.

Biological target: HER2 receptor (human) (UniProt P04626)
Assay: cell-based or functional assay
Settings: scale: % greater uptake compared to the non-targeted nanoparticle

cellular uptake in BT-474 cell line (CPT fluorescence of cell lysate, 30 min at 37° C.): 70
Substance: Herceptin®-PEG-nitroPBA targeted MAP-CPT nanoparticle (antibody)
